Experimental data published in paper PMC8512817.

molecular target: A9UPE9 PDZ (A9UPE9_MONBE PDZ domain, residues 7-98) (Monosiga brevicollis); experiment: fluorescence polarisation

| Substance | Ki [µM] |
| --- | --- |
| A9UP44 peptide (QSESRL) | 64 |
| A9UWP5_MONVE peptide (GSESSV) | 490 |
| A9UXE1 peptide (QDETAL) | 460 |
| A9V6G5_MONBE peptide (HRESTV) | 97 |
| A9V7Z4 peptide (EDETAL) | 580 |
| B1AR peptide (ASESKV) | 95 |
| BPIX peptide (WDETNL) | 330 |
| DLL1/DLL4 peptide (VIATEV) | 240 |
| TYRP1 peptide (PNQSVV) | 97 |
